Results on 13 substances are retold here after patent US20190085043A1, “FUSION PROTEINS FOR TREATING A METABOLIC SYNDROME” (SANOFI, priority 2012, published 2019).

In one assay the target is human FGFR1c plus KLB (Homo sapiens, UniProt P11362+Q86Z14). The assay is described as follows: FGF-21 receptor autophosphorylation In-Cell Western (pFGFR ICW) in CHO cells. The class given is cell-based. The settings on record: CHO cells overexpressing human FGFR1c plus KLB, FGFR autophosphorylation. As to the method:
FIG. 1B-1 to FIG. 1B-4) The FGF induced FGFR autophosphorylation was measured via a specific and highly sensitive In-Cell Western (ICW) in CHO cells stably overexpressing human FGFR1c together with human betaKlotho (KLB). In-Cell Western assay is an immunocytochemical assay usually performed in microplate format. Target-specific primary antibodies and infrared-labelled secondary antibodies are used to detect target proteins in fixed cells, and fluorescent signal from each well is quantified (e.g. the In-Cell Western assay from LI-COR Biosciences, USA).
The cellular efficacy of FGF-21 or FGF-21 fusion proteins was measured using a specific and highly sensitive In-Cell Western (ICW) assay. The ICW assay is an immunocytochemical assay usually performed in microplate format.
(§1) CHO Flp-In cells (Invitrogen, Darmstadt, Germany) stable expressing the human FGFR1c together with human beta-Klotho (KLB) were used for FGF-21 receptor autophosphorylation assay using In-Cell Western. In order to determine the receptor autophosphorylation level, 2×10^4 cells/well were seeded into 96-well plates and grown for 48 h. Cells were serum starved with serum-free medium Ham's F-12 Nutrient Mix with GlutaMAX (Gibco, Darmstadt, Germany) for 3-4 h. The cells were subsequently treated with increasing concentrations of either human FGF-21, the indicated FGF-21 fusion protein, or other peptides for 5 min at 37° C. After incubation the medium was discarded and the cells were fixed in 3.7% freshly prepared para-formaldehyde for 20 min. Cells were permeabilized with 0.1% Triton-X-100 in PBS for 20 min. Blocking was performed with Odyssey blocking buffer (LICOR, Bad Homburg, Germany) for 2 h at room temperature. Anti-pFGFR Tyr653/654 (New England Biolabs, Frankfurt, Germany) was incubated overnight at 4° C. After incubation of the primary antibody, cells were washed with PBS+0.1% Tween20. The secondary anti-Mouse 800CW antibody (LICOR, Bad Homburg, Germany) was incubated for 1 h at room temperature. Subsequently cells were washed again with PBS+0.1% Tween20 and infrared dye signals were quantified with an Odyssey imager (LICOR, Bad Homburg, Germany). Results were normalized by quantification of DNA with TO-PRO3 dye (Invitrogen, Karlsruhe, Germany). FIG. 1B-1 to FIG. 1B-4 show the results from an ICW with CHO cells overexpressing human FGFR1c plus KLB.

The test system of another assay is MAP kinase ERK1/2. Nature of the assay: ERK1/2 phosphorylation In-Cell Western (pERK ICW) in CHO cells overexpressing human FGFR1c plus KLB. Type of assay: cell-based. The settings on record: ERK1/2 phosphorylation Thr202/Tyr204. As to the method: FIG. 1C-1 to FIG. 1C-3) Dose dependent in vitro activation of the downstream effector ERK. Activation of the downstream effector of FGF signaling, the MAP kinase ERK1/2, was determined via In-Cell Western assay in CHO cells stably overexpressing human FGFR1c and KLB using an antibody directed against the ERK1/2 phosphorylated amino acid residues threonine 202 and tyrosine 204.
as §1
To assess the activation of a downstream effector of FGFR signalling by FGF-21-GLP-1RA fusion proteins the phosphorylation of MAP kinases ERK1/2 were analysed. The same ICW protocol as described above was used, simply the primary antibody was replaced by anti-phospho-p44/42 MAPK (Erk1/2) (Thr202/Tyr204) (New England Biolabs, Frankfurt, Germany). FIG. 1C-1 to FIG. 1C-3 show the results from ICW with CHO cells overexpressing human FGFR1c plus KLB and detection of ERK1/2 phosphorylation.

In another assay the target is T1, human GLP-1 receptor (Homo sapiens, UniProt P43220).
T1 construct: expressed in transfected cells
The assay is described as follows: In vitro cellular assay for human GLP-1 receptor efficacy (cAMP HTRF, HEK-293). The settings on record: HEK-293 cells stably expressing human GLP-1 receptor, read-out: hGLP-1R cAMP EC50. Type of assay: cell-based. As to the method: The cAMP content of the cells was determined using a kit from Cisbio Corp. (cat. no. 62AM4PEC) based on HTRF (Homogenous Time Resolved Fluorescence).
The cAMP content of cells was determined using a kit from Cisbio Corp. (cat. no. 62AM4PEC) based on HTRF (Homogenous Time Resolved Fluorescence). For preparation, cells were split into T175 culture flasks and grown overnight to near confluence in medium (DMEM/10% FBS). Medium was then removed and cells washed with PBS lacking calcium and magnesium, followed by proteinase treatment with accutase (Sigma-Aldrich cat. no. A6964). Detached cells were washed and resuspended in assay buffer (1×HBSS; 20 mM HEPES, 0.1% BSA, 2 mM IBMX) and cellular density determined. They were then diluted to 4×10^5cells/mL and 25 μL-aliquots dispensed into the wells of 96-well plates. For measurement, 25 μL of test compound in assay buffer was added to the wells, followed by incubation for 30 minutes at room temperature.

Another assay concerns ob/ob mice. Nature of the assay: Treatment of ob/ob mice by chronic infusion (Alzet pumps, 11 days). Type of assay: in vivo, mouse. The conditions noted are these: for Relative body weight change (%): after 11 days of treatment. The protocol: Female ob/ob mice (B6.V-LEP OB/J, age of 9 weeks) were obtained from Charles Rivers Laboratories (Sulzfeld, Germany). Mice were randomly assigned to treatment or vehicle groups, and the randomization was stratified by body weight and fed blood glucose levels. The animals were housed in groups of 8 at 23° C. and on a 12 h light-dark cycle. All experimental procedures were conducted according to German Animal Protection Law. Mice were fed ad libitum with standard rodent chow during the drug treatment periods. Body weight and food intake was recorded every other day throughout the study.
Ob/ob mice were treated with vehicle (PBS), 0.03, 0.1, 0.3, and 1.0 mg·kg^−1·day^−1 recombinant Exenatide-IEGR-FGF-21 (SEQ ID NO: 15) via chronic infusion by Alzet pumps (type 1004) over 11 days.
At the end of the study liver weight and liver triglycerides were analysed.
Two days before pump implantation and after 11 days of treatment blood glucose was measured by tail tip bleeding under fed conditions. As shown in FIGS. 10 and 11 blood glucose levels of the chronic infused mice were decreased dose-dependently with highest effect at the dosage of 1.0 mg·kg^−1·day^−1 recombinant fusion protein.

[1] abbreviates: 0.03, 0.1, 0.3 and 1 mg/kg, end of study.

pEC50: −log10 of the molar value.

T1 sequence (P43220 24-463): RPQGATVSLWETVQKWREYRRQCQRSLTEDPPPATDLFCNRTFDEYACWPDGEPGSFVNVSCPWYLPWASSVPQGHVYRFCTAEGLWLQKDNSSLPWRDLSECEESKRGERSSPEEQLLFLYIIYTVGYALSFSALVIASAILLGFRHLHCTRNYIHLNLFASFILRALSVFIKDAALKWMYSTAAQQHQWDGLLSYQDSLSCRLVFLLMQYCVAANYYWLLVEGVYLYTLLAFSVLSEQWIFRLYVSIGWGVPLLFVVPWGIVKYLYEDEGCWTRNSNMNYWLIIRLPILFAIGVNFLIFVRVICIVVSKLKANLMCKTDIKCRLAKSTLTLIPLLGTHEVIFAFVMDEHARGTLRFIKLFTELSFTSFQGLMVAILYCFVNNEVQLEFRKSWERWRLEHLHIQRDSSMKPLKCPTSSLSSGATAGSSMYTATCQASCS
human FGFR1c plus KLB, sequence (P11362 22-822): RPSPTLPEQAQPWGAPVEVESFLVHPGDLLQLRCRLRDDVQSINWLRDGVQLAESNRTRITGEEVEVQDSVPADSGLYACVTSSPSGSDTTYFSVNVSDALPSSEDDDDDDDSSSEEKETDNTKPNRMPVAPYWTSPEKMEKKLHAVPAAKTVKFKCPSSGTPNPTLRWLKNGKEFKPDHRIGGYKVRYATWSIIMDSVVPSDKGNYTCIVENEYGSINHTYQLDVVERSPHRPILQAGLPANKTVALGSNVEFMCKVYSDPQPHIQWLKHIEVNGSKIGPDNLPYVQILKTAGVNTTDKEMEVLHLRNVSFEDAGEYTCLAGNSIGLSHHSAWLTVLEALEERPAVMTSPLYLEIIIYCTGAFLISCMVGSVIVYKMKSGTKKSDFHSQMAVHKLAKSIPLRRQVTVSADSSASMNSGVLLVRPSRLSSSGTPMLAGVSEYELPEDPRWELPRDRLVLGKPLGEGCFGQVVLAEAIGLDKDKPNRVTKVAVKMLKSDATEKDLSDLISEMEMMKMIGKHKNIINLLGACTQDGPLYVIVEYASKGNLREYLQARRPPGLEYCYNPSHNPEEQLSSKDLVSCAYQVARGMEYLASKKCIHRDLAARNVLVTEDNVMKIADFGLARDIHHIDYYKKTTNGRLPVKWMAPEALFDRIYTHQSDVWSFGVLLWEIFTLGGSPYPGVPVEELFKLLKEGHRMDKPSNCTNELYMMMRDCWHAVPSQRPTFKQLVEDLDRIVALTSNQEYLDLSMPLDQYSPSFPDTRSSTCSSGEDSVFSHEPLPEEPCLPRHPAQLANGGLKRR
human FGFR1c plus KLB, sequence (Q86Z14 whole entry): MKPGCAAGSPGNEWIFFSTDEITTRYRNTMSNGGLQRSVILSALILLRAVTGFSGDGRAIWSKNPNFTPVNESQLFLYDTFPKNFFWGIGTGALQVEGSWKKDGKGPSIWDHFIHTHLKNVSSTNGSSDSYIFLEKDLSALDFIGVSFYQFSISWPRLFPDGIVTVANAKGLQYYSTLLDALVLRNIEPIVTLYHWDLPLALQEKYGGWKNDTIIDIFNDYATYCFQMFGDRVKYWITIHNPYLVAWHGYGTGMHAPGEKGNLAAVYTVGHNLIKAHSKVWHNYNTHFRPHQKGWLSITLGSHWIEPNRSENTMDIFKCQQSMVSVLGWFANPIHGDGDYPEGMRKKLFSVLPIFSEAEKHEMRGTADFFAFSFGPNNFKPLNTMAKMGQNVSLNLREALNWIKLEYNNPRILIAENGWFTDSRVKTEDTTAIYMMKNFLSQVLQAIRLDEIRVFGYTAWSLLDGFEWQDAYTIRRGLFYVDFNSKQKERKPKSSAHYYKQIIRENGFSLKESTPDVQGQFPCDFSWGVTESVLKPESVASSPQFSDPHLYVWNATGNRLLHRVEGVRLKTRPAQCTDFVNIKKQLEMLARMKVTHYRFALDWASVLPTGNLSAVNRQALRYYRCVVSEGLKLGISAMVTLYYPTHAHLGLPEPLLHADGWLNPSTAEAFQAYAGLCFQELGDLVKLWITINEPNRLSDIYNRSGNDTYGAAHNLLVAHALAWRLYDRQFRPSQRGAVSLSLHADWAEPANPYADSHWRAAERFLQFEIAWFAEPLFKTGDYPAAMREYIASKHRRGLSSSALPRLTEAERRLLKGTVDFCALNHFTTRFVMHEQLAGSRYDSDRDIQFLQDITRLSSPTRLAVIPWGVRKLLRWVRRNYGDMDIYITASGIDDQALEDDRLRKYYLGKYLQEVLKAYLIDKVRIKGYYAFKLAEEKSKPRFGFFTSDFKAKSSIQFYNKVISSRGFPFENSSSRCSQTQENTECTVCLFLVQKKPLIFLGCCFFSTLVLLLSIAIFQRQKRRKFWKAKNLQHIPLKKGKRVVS

Take “Exenatide-APSCPAS-FGF21: fusion protein, linker based on PAS sequence plus Cystein for potential modification”: the pEC50 in the assay with human FGFR1c plus KLB is 6.71; with MAP kinase ERK1/2 it was 7.96; with human GLP-1 receptor it was 10.88.
Take “Exenatide-APSPAS-FGF21: fusion protein, linker based on PAS sequence”: the pEC50 is 8.39 with human FGFR1c plus KLB, 9.57 with MAP kinase ERK1/2 and 11.52 with human GLP-1 receptor.
In the case of “Exenatide-FGF21-GG-ABD-GG-FGF21: fusion protein, GG-ABD-GG = linker”, the figures for the pEC50 with human FGFR1c plus KLB, with MAP kinase ERK1/2 and with human GLP-1 receptor were 7.43, 8.36 and 10.67, respectively.
On to “Exenatide-FGF21-GG-ABD: fusion protein, GG-ABD = linker (albumin binding domain)”, for which the figures for the pEC50 in the assay with human FGFR1c plus KLB, with MAP kinase ERK1/2 and with human GLP-1 receptor were 7.10, 7.05 and 11.10, respectively.
The matching figures for “Exenatide-FGF21: fusion protein of exenatide and human FGF-21 His29-Ser209 without linker”: 8.89, 9.29 and 11.39.
Regarding “Exenatide-GG-ABD-GG-FGF21: fusion protein, GG-ABD-GG = linker”, in the assay with human GLP-1 receptor, the pEC50 was 10.80.
For “Exenatide-GGGGS-His-GGGGS-ABD-GG-FGF21: fusion protein, GGGGS-His-GGGGS-ABD-GG = linker”, the pEC50 was 8.30 with MAP kinase ERK1/2 and 11.60 with human GLP-1 receptor.
For “Exenatide-GGGRR-FGF21: fusion protein, GGGRR protease cleavage site linker”, the pEC50 with human FGFR1c plus KLB is 8.13; in the assay on MAP kinase ERK1/2, 9.01; with human GLP-1 receptor, 11.11.
The matching figures for “Exenatide-GSGS-FGF21: fusion protein, GSGS = linker”: 7.72, 9.28 and 11.14.
Take “Exenatide-IEGQ-FGF21: fusion protein, IEGQ = linker (mutated/defect Factor Xa cleavage site)”: the results for the pEC50 with human FGFR1c plus KLB, in the assay with MAP kinase ERK1/2 and with human GLP-1 receptor were 7.45, 9.10 and 11.21, respectively.
Regarding “Exenatide-IEGR-FGF21: fusion protein exenatide - Factor Xa cleavage site IEGR linker - FGF21”, the “Relative body weight change (%)” value is “+6.6%” in the assay on ob/ob mice (0.03 mg/kg, chronic infusion); “+1.1%” with ob/ob mice (0.1 mg/kg, chronic infusion); −2.6% in the assay with ob/ob mice (0.3 mg/kg, chronic infusion); −17.8% with ob/ob mice (1 mg/kg, chronic infusion). Besides, the “highest reduction of body weight” value with ob/ob mice (1 mg/kg, chronic infusion) worked out at 17.8%. Further, in the assay on ob/ob mice (0.03, 0.1, 0.3 and 1 mg/kg, chronic infusion), the body weight entry is “dose dependent decrease”. The liver triglycerides result with ob/ob mice (setting [1]) is “dose dependent decrease”. The total liver weight entry in the assay on ob/ob mice (setting [1]) is “dose dependent decrease”. In addition, in the assay on ob/ob mice (0.03, 0.1, 0.3 and 1 mg/kg, fed, after 11 days of chronic infusion), the blood glucose entry was “dose dependent decrease”. Moreover, the pEC50 in the assay with human FGFR1c plus KLB was 8.72; in the assay on MAP kinase ERK1/2, 9.40; with human GLP-1 receptor, 11.40.
Take “Lixisenatide-FGF21: fusion protein of lixisenatide and FGF21 without linker”: the pEC50 with human FGFR1c plus KLB is 8.43; in the assay with MAP kinase ERK1/2, 9.62; in the assay with human GLP-1 receptor, 11.43.
Take “Lixisenatide-IEGR-FGF21: fusion protein lixisenatide - Factor Xa cleavage site - FGF21”: the values for the pEC50 with human FGFR1c plus KLB, in the assay on MAP kinase ERK1/2 and with human GLP-1 receptor were 8.51, 9.00 and 11.42, respectively.
